Experimental findings from article doi:10.1101/2021.08.31.458345 are described below.

In test [1] the target is gp41 subunit of ADA.CM.v4 Env (CTD truncated by 102 amino acids) (HIV-1 (subtype B isolate ADA)). The experiment in a line: cryo-EM structure.
For test [2], the target named is immature Gag polyprotein (pr55 Gag precursor) (HIV-1). The experiment in a line: cryo-EM structure.

In test [1], “gp41 subunit of ADA.CM.v4 Env (CTD truncated by 102 amino acids) (domain or fragment)” yielded a stoichiometry N of 3.

In test [2], “immature Gag polyprotein (pr55 Gag precursor) (natural protein)” came in with a stoichiometry N of 6.

What is called stoichiometry N is a count of units in the complex or per binding partner.
